Measured values published in article PMC2217618.

Target: RGDPEG-avidin (UniProt P02701)
Assay: ELISA

Sequence of RGDPEG-avidin (P02701 25-152): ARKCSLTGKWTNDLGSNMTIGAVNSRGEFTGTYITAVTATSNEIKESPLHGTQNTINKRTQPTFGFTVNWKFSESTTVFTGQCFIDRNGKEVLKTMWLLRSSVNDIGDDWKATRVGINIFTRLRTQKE
Sequence of Bio-ULS-TRAIL (P50591 114-281): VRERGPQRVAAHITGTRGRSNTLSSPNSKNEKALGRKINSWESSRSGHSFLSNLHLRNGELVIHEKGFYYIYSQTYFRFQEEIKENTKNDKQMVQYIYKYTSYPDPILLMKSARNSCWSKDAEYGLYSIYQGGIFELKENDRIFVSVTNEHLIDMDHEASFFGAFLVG

Bio-ULS-TRAIL (from UniProt P50591 114-281) (ligand)
binding less than Bio-NHS-TRAIL: 40 % less
